How the values were obtained:
human ISG15 (C78S) [1] = target: T1, human ISG15 (C78S) (human, UniProt P05161 1-157, C78S); assay: BLI
human ISG15 (C78S) [2] = target: T1, human ISG15 (C78S); assay: BLI; remark: listed apart in the source

T1 sequence (P05161 1-157 C78S): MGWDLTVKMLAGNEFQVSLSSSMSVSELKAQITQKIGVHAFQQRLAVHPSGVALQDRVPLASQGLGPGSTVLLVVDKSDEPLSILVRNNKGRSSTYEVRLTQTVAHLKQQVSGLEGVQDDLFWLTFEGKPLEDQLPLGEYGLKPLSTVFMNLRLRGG

koff (human ISG15 (C78S) [1]) [s⁻¹] | Kd (human ISG15 (C78S) [2]) [nM] | Binder
0.00388 | 2.88 | C-terminally biotin-tagged VHH_(ISG15-B) (VHH, biotin at the C-terminus (sortase reaction with GGG-Biotin replaces the C-terminal HA tag)) VHH: QVQLVETGGGLVEPGGSLRLSCTVSGINFSSQFMAWFRQGPGKQREWVAIDAGEENVGYLDLVEGRFTISRDTARNTLYLQMNSLKPEDTAVYYCNIFPVLPDSRWGQGTQVTVSS
0.012 | 101 | C-terminally biotin-tagged VHH_(ISG15-A) (VHH, biotin at the C-terminus (sortase reaction with GGG-Biotin replaces the C-terminal HA tag)) VHH: QLQLVETGGGLVQAGGSLRLSCAASGRTFAGLSVKWFRQPPGAEREWVAHITSTGSSTHYADSVKGRFTISRDYDRNMVYLQMSSLKPEDTAVYYCHASTLWPEKHQDYWGQGIQVTVSS
